Reference: US20210130436A1 (published 2021)

Experiments:
[1] = target: T1, human CD28, on Jurkat/IL2 reporter cells or primary human T cells (human, UniProt P10747 19-220); assay: flow cytometry on unactivated primary human pan T cells (CD28+), anti-human IgG detection (FIG. 19A)
T1 construct: Endogenous CD28 of Jurkat cells or of primary human T cells

[2] = target: T2, human PD-L1, expressed on cells (human, UniProt Q9NZQ7 19-290); assay: flow cytometry on CD14+ monocytes (monocyte-expressed PD-L1) of PBMC cultured overnight with anti-CD3 and anti-CD28 (FIG. 19B)
T2 construct: On CHO/PD-L1, K562/OKT3/PD-L1 and CHO/OKT3/PD-L1 aAPC, huPD-L1-transduced MC38 cells, or primary human monocytes; also called huPD-L1; hPD-L1
T2 sequence (Q9NZQ7 19-290): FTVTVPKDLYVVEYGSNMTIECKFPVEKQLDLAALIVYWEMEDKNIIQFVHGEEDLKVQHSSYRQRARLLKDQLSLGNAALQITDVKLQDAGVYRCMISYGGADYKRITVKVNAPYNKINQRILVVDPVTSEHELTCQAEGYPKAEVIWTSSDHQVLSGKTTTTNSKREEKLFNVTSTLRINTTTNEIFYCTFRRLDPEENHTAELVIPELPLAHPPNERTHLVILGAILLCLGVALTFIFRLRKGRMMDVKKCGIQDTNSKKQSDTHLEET

CD96 [3] = target: T3, CD96 (UniProt P40200 22-585, limits assumed); assay: flow cytometry on CD96-expressing cells
T3 construct: whole, on cells
T3 sequence (looked up): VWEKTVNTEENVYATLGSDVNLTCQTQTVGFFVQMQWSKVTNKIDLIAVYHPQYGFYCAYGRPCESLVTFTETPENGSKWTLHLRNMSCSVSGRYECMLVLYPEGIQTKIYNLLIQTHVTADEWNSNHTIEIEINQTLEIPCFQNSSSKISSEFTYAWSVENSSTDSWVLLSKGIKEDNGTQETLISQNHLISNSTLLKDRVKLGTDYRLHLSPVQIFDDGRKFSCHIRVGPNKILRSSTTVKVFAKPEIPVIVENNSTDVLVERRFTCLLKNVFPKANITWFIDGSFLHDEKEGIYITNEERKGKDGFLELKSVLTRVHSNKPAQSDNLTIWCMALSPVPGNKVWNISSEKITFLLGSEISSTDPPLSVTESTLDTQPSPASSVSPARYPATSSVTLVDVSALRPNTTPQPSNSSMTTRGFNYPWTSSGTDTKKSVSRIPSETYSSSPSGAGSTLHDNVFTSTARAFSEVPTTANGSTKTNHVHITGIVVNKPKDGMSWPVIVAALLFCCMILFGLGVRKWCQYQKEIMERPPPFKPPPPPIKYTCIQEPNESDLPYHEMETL

CD226 [4] = target: T4, CD226 (Homo sapiens (Human), UniProt Q15762 19-336); assay: flow cytometry on CD226-transfected Expi293 cells
T4 construct: also called CD226 tfxn
T4 sequence: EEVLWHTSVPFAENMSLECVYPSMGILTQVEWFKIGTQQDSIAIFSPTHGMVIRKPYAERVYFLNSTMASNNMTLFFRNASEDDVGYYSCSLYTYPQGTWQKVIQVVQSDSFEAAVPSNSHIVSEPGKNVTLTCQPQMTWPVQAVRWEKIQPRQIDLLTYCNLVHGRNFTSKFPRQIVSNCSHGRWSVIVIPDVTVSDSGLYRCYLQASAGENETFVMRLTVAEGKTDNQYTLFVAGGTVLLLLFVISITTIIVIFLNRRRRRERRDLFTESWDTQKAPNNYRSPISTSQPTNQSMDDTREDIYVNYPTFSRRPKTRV

TIGIT [5] = target: T5, TIGIT (Homo sapiens (Human), UniProt Q495A1 23-244); assay: flow cytometry on TIGIT-transfected Expi293 cells
T5 construct: also called TIGIT tfxn
T5 sequence: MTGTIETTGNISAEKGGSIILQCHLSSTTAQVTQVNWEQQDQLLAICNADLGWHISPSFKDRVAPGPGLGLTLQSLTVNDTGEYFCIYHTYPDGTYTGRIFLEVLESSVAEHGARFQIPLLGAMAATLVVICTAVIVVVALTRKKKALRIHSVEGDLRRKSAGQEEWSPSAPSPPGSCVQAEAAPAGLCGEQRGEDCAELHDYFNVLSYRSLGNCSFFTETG

CD96 [6] = target: T3, CD96; assay: flow cytometry on CD96-expressing cells; ratio to unmodified CD155 Fc fusion
CD226 [7] = target: T4, CD226; assay: flow cytometry on CD226-transfected Expi293 cells; ratio to unmodified CD155 Fc fusion
TIGIT [8] = target: T5, TIGIT; assay: flow cytometry on TIGIT-transfected Expi293 cells; ratio to unmodified CD155 Fc fusion
[9] = target: T6, human PD-L1, expressed on CHO cells (human, UniProt Q9NZQ7 19-290); assay: flow cytometry on CHO cells stably expressing human PD-L1; PE anti-human Fc
T6 construct: Full-length surface expression construct transduced by lentivirus into CHO cells; also called huPD-L1; CD274
T6 sequence (Q9NZQ7 19-290): as the sequence (Q9NZQ7 19-290) above

[10] = target: T7, human CTLA-4 (CTLA4), expressed on CHO cells (human, UniProt P16410 36-223); assay: flow cytometry on CHO cells stably expressing human CTLA-4; PE anti-human Fc
T7 construct: Full-length surface expression construct transduced by lentivirus into CHO cells; also called huCTLA4
T7 sequence (P16410 36-223): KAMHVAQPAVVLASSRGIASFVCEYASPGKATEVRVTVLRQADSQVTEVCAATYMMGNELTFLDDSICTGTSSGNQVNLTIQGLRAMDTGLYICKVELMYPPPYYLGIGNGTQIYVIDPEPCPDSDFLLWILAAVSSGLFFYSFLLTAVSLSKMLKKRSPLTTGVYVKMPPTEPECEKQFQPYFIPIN

[11] = target: T6, human PD-L1, expressed on CHO cells; assay: flow cytometry; ratio of MFI on PD-L1 CHO cells to MFI on Jurkat (CD28) cells
[12] = target: T8, CD28, endogenously expressed on Jurkat/IL2 reporter cells (human, UniProt P10747 19-220); assay: flow cytometry on Jurkat/IL2 reporter cells (endogenous CD28); PE anti-human Fc
T8 construct: Endogenous CD28 of Jurkat/IL2 reporter cells

[13] = target: T6, human PD-L1, expressed on CHO cells; assay: flow cytometry on CHO cells stably expressing human PD-L1; MFI relative to WT CD80 ECD-Fc (R&D)
[14] = target: T7, human CTLA-4 (CTLA4), expressed on CHO …; assay: flow cytometry on CHO cells stably expressing human CTLA-4; MFI relative to WT CD80 ECD-Fc (R&D)
[15] = target: T8, CD28, endogenously expressed on …; assay: flow cytometry on Jurkat/IL2 reporter cells (endogenous CD28); MFI relative to WT CD80 ECD-Fc (R&D)

B1: CD80 variant E35D/M47V/N48K/V68M/K89N IgV (SEQ ID NO: 2250)-Fc (inert) (Fc fusion)
chain: VIHVTKEVKEVATLSCGHNVSVEELAQTRIYWQKDKKMVLTMMSGDVKIWPEYKNRTIFDITNNLSIMILALRPSDEGTYECVVLKYENDAFKREHLAEVTLSVKADGSGGGGSEPKSSDKTHTCPPCPAPEAEGAPSVFLFPPKPKDTLMISRTPEVTCVVVDVSHEDPEVKFNWYVDGVEVHNAKTKPREEQYNSTYRVVSVLTVLHQDWLNGKEYKCKVSNKALPAPIEKTISKAKGQPREPQVYTLPPSREEMTKNQVSLTCLVKGFYPSDIAVEWESNGQPENNYKTTPPVLDSDGSFFLYSKLTVDKSRWQQGNVFSCSVMHEALHNHYTQKSLSLSPG
notes: also called E35D/M47V/N48K/V68M/K89N CD80 IgV-Fc; CD80 vIgD-Fc
binding result [1]: binds | binding result [2]: binds

B2: CD80 variant E35D/D46V/M47L/V68M/L85Q/E88D IgV (SEQ ID NO: 2280)-Fc (inert) (Fc fusion)
chain: VIHVTKEVKEVATLSCGHNVSVEELAQTRIYWQKDKKMVLTMMSGVLNIWPEYKNRTIFDITNNLSIMILALRPSDEGTYECVVQKYDKDAFKREHLAEVTLSVKADGSGGGGSEPKSSDKTHTCPPCPAPEAEGAPSVFLFPPKPKDTLMISRTPEVTCVVVDVSHEDPEVKFNWYVDGVEVHNAKTKPREEQYNSTYRVVSVLTVLHQDWLNGKEYKCKVSNKALPAPIEKTISKAKGQPREPQVYTLPPSREEMTKNQVSLTCLVKGFYPSDIAVEWESNGQPENNYKTTPPVLDSDGSFFLYSKLTVDKSRWQQGNVFSCSVMHEALHNHYTQKSLSLSPG
notes: also called E35D/D46V/M47L/V68M/L85Q/E88D CD80 IgV-Fc; CD80 vIgD-Fc
binding result [1]: binds | binding result [2]: binds

B3: variant CD155 IgV-Fc A81V/L83P (Fc fusion, not shown: a dimerising Fc or GST)
chain: WPPPGTGDVVVQAPTQVPGFLGDSVTLPCYLQVPNMEVTHVSQLTWARHGESGSMAVFHQTQGPSYSESKRLEFVAARLGVEPRNASLRMFGLRVEDEGNYTCLFVTFPQGSRSVDIWLRVL
MFI (CD96 [3]): 2620 MFI | MFI (CD226 [4]): 4170 MFI | MFI (TIGIT [5]): 2910 MFI | MFI parental ratio (CD96 [6]): 0.8 fold | MFI parental ratio (CD226 [7]): 1.1 fold | MFI parental ratio (TIGIT [8]): 1.1 fold

B4: variant CD155 IgV-Fc P18T/F91S/R94H (Fc fusion, not shown: a dimerising Fc or GST)
chain: WPPPGTGDVVVQAPTQVTGFLGDSVTLPCYLQVPNMEVTHVSQLTWARHGESGSMAVFHQTQGPSYSESKRLEFVAARLGAELRNASLRMSGLHVEDEGNYTCLFVTFPQGSRSVDIWLRVL
MFI (CD96 [3]): 2510 MFI | MFI (CD226 [4]): 3590 MFI | MFI (TIGIT [5]): 2940 MFI | MFI parental ratio (CD96 [6]): 0.8 fold | MFI parental ratio (CD226 [7]): 1 fold | MFI parental ratio (TIGIT [8]): 1.1 fold

B5: variant CD155 IgV-Fc P18L/L79V/F91S (Fc fusion, not shown: a dimerising Fc or GST)
chain: WPPPGTGDVVVQAPTQVLGFLGDSVTLPCYLQVPNMEVTHVSQLTWARHGESGSMAVFHQTQGPSYSESKRLEFVAARVGAELRNASLRMSGLRVEDEGNYTCLFVTFPQGSRSVDIWLRVL
MFI (CD96 [3]): 3280 MFI | MFI (CD226 [4]): 5140 MFI | MFI (TIGIT [5]): 4070 MFI | MFI parental ratio (CD96 [6]): 1.1 fold | MFI parental ratio (CD226 [7]): 1.4 fold | MFI parental ratio (TIGIT [8]): 1.5 fold

B6: variant CD80 IgV-Fc E35D/D46E/M47V/V68M/D90G/K93E (Fc fusion, not shown: small tags and cut ends; a dimerising Fc or GST)
chain: VIHVTKEVKEVATLSCGHNVSVEELAQTRIYWQKDKKMVLTMMSGEVNIWPEYKNRTIFDITNNLSIMILALRPSDEGTYECVVLKYEKGAFEREHLAEVTLSVKAD
notes: Fc fusion of the variant IgV
MFI at 33.3 nM [9]: 71900 MFI | MFI at 33.3 nM [10]: 273000 MFI | Ratio of PDL1:CD28 [11]: 3 ratio | MFI at 33.3 nM [12]: 27100 MFI | Fold change to WT CD80 [13]: 6.06 fold | Fold change to WT CD80 [14]: 1.74 fold | Fold change to WT CD80 [15]: 1.5 fold

B7: variant CD80 IgV-Fc E35D/M47L/A71G/L85M/F92Y (Fc fusion, not shown: small tags and cut ends; a dimerising Fc or GST)
chain: VIHVTKEVKEVATLSCGHNVSVEELAQTRIYWQKDKKMVLTMMSGDLNIWPEYKNRTIFDITNNLSIVILGLRPSDEGTYECVVMKYEKDAYKREHLAEVTLSVKAD
notes: Fc fusion of the variant IgV
MFI at 33.3 nM [9]: 46700 MFI | MFI at 33.3 nM [10]: 216000 MFI | Ratio of PDL1:CD28 [11]: 19 ratio | MFI at 33.3 nM [12]: 2460 MFI | Fold change to WT CD80 [13]: 3.93 fold | Fold change to WT CD80 [14]: 1.37 fold | Fold change to WT CD80 [15]: 0.14 fold
